PMC3763426, “Genetic and structural validation of Aspergillus fumigatus N-acetylphosphoglucosamine mutase as an antifungal target” (Bioscience Reports, 2013)

What was measured:
[1] = target: T1, AfAGM1 (A. fumigatus N-acetylphosphoglucosamine mutase) (Aspergillus fumigatus, UniProt Q4WJF0, DEL85-101); experiment: direct HPAEC-PAD enzyme assay, […] Glc-1P; type: biochemical
T1 construct: gene AFUA_1G06210; deletion of VSSYGTFDGGMKGEFAD, residues 85–101 of XP_750370 (likely alternative splicing); GST tag cleaved; pSer69
T1 sequence (Q4WJF0 entry or part of it DEL85-101): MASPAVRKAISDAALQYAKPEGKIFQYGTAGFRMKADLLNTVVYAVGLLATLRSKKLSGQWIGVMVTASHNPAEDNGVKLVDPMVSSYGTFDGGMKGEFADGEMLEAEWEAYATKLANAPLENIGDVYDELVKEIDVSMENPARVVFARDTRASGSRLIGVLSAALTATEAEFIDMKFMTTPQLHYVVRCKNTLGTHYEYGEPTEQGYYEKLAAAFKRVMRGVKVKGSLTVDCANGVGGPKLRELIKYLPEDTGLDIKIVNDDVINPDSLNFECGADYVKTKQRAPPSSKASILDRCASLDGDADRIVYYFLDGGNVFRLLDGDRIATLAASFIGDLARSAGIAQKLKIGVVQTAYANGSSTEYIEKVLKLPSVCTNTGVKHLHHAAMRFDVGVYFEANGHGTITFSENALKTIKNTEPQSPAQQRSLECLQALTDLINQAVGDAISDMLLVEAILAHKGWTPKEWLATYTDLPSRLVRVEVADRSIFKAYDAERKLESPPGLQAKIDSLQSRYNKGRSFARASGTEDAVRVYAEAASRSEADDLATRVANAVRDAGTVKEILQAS

[2] = target: T1, AfAGM1 (A. fumigatus N-acetylphosphoglucosamine mutase); experiment: enzyme inhibition kinetics, Lineweaver–Burk plot; type: biochemical
[3] = system: CC(=O)N[C@H]1C(O)O[C@H](COP(=O)(O)O)[C@@H](O)[C@@H]1O; experiment: purified protein; conditions: Mg2+
[4] = system: O=P(O)(O)O[C@H]1O[C@H](CO)[C@@H](O)[C@H](O)[C@H]1O; experiment: purified protein; conditions: Mg2+

With NC(Cc1cc(O)c(O)cc1O)C(=O)O (racemic) [compound 3, 6-hydroxy-DL-DOPA] the IC50 [1] was 58 ± 4 µM.

Cc1nc(/N=N/c2ccc(C(=O)O)cc2)c(COP(=O)(O)O)c(C=O)c1O [compound 4, tri-sodium 4-[(2z)-2-[4-formyl-6-metyl-5-oxo-3-(phosphonatooxymetyl)-pyridin-2-ylidene] hydrazinyl] benzoate] gave an IC50 [1] of 7.1 ± 0.2 µM.

Molecule Nc1ccc(O)c2c1C(=O)c1c(O)ccc(N)c1C2=O [compound 1, 1,5-diamino-4,8-dihydroxyanthraquinone] has a Ki [2] of 300 ± 13 µM.

“AfAGM1 (A. fumigatus N-acetylphosphoglucosamine mutase) (Aspergillus fumigatus Af293; DEL85-101)” showed a Km [3] of 25 ± 8 µM, a kcat [3] of 0.21 s⁻¹ and a kcat/Km [3] of 8400 M⁻¹ s⁻¹. For the same molecule, the Km [4] was 1200 ± 100 µM, the kcat [4] was 37.6 s⁻¹ and the kcat/Km [4] was 31300 M⁻¹ s⁻¹.
